According to patent publication US20220306751A1 (MYTHIC THERAPEUTICS, published 2022):
Positions count from the first letter of the chain named.

T1: CD123 Protein, His Tag, Acro Biosciences Cat. No. ILA-H52H6 (Homo sapiens (Human), UniProt P26951 19-305)
T1 construct: Bought protein; not shown: His tag
T1 sequence: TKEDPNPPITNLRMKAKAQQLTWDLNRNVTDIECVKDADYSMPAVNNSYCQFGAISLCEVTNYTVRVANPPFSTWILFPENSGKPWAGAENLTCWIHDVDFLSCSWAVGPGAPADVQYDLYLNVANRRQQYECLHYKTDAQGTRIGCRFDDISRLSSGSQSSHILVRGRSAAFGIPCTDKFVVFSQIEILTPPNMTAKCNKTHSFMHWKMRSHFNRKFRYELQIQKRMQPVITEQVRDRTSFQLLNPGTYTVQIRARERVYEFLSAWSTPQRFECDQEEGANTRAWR

B1: MYT1253 (antibody, V domains shown)
VH: QVQLVQSGAEVKKPGASVKVSCKASGHIFTSSIMHWVRQAPGQGLEWIGYIKPYNDGTKYNEKFKGRATLTSDRSTSTAYMELSSLRSEDTAVYYCAREGGNDYYDTMDYWGQGTLVTVSS
VL: DIQMTQSPSSLSASVGDRVTITCRASQDINSYLSWFQQKPGKAPKTLIYRVNRLVDGVPSRFSGSGSGNDYTLTISSLQPEDFATYYCLQYDAFPYTFGQGTKVEIK
notes: IgG
B2: MYT1257 (antibody, V domains shown)
VH: B1 VH with H27Y, S31H
VL: B1 VL
notes: IgG
B3: MYT1280 (antibody, V domains shown)
VH: B1 VH with H27Y, R98H
VL: B1 VL
notes: IgG
B4: MYT1270 (antibody, V domains shown)
VH: B1 VH with H27Y, T58H
VL: B1 VL
notes: IgG
B5: MYT1271 (antibody, V domains shown)
VH: B1 VH with H27Y, K59H
VL: B1 VL
notes: IgG
B6: MYT1263 (antibody, V domains shown)
VH: B1 VH with H27Y, I51H
VL: B1 VL
notes: IgG
B7: MYT1259 (antibody, V domains shown)
VH: B1 VH with H27Y, I33H
VL: B1 VL
notes: IgG
B8: MYT1278 (antibody, V domains shown)
VH: B1 VH with H27Y, G66H
VL: B1 VL
notes: IgG
B9: MYT1275 (antibody, V domains shown)
VH: B1 VH with H27Y, K63H
VL: B1 VL
notes: IgG
B10: MYT1289 (antibody, V domains shown)
VH: B1 VH with H27Y, T107H
VL: B1 VL
notes: IgG
B11: MYT1274 (antibody, V domains shown)
VH: B1 VH with H27Y, E62H
VL: B1 VL
notes: IgG
B12: MYT1286 (antibody, V domains shown)
VH: B1 VH with H27Y, Y104H
VL: B1 VL
notes: IgG
B13: MYT1283 (antibody, V domains shown)
VH: B1 VH with H27Y, G101H
VL: B1 VL
notes: IgG
B14: MYT1252 (antibody, V domains shown)
VH: B1 VH with G26H, H27Y
VL: B1 VL
notes: IgG
B15: MYT1266 (antibody, V domains shown)
VH: B1 VH with H27Y, Y54H
VL: B1 VL
notes: IgG
B16: MYT1276 (antibody, V domains shown)
VH: B1 VH with H27Y, F64H
VL: B1 VL
notes: IgG
B17: MYT1255 (antibody, V domains shown)
VH: B1 VH with H27Y, F29H
VL: B1 VL
notes: IgG
B18: MYT1258 (antibody, V domains shown)
VH: B1 VH with H27Y, S32H
VL: B1 VL
notes: IgG
B19: MYT1265 (antibody, V domains shown)
VH: B1 VH with H27Y, P53H
VL: B1 VL
notes: IgG
B20: MYT1261 (antibody, V domains shown)
VH: B1 VH with H27Y, H35A
VL: B1 VL
notes: IgG
B21: MYT1256 (antibody, V domains shown)
VH: B1 VH with H27Y, T30H
VL: B1 VL
notes: IgG
B22: MYT1287 (antibody, V domains shown)
VH: B1 VH with H27Y, Y105H
VL: B1 VL
notes: IgG
B23: MYT1267 (antibody, V domains shown)
VH: B1 VH with H27Y, N55H
VL: B1 VL
notes: IgG
B24: MYT1279 (antibody, V domains shown)
VH: B1 VH with H27Y, A97H
VL: B1 VL
notes: IgG
B25: MYT1273 (antibody, V domains shown)
VH: B1 VH with H27Y, N61H
VL: B1 VL
notes: IgG
B26: MYT1260 (antibody, V domains shown)
VH: B1 VH with H27Y, M34H
VL: B1 VL
notes: IgG
B27: MYT1269 (antibody, V domains shown)
VH: B1 VH with H27Y, G57H
VL: B1 VL
notes: IgG
B28: MYT1254 (antibody, V domains shown)
VH: B1 VH with H27Y, I28H
VL: B1 VL
notes: IgG
B29: MYT1284 (antibody, V domains shown)
VH: B1 VH with H27Y, N102H
VL: B1 VL
notes: IgG
B30: MYT1262 (antibody, V domains shown)
VH: B1 VH with H27Y, Y50H
VL: B1 VL
notes: IgG
B31: MYT1268 (antibody, V domains shown)
VH: B1 VH with H27Y, D56H
VL: B1 VL
notes: IgG
B32: MYT1277 (antibody, V domains shown)
VH: B1 VH with H27Y, K65H
VL: B1 VL
notes: IgG
B33: MYT1285 (antibody, V domains shown)
VH: B1 VH with H27Y, D103H
VL: B1 VL
notes: IgG
B34: MYT1272 (antibody, V domains shown)
VH: B1 VH with H27Y, Y60H
VL: B1 VL
notes: IgG
B35: MYT1288 (antibody, V domains shown)
VH: B1 VH with H27Y, D106H
VL: B1 VL
notes: IgG
B36: MYT1282 (antibody, V domains shown)
VH: B1 VH with H27Y, G100H
VL: B1 VL
notes: IgG

Target: T1, CD123 Protein, His Tag, Acro …
Test: BLI, IgG on anti-human Fc sensor, 50 nM CD123, pH 7.4 and pH 5.4
From the text: We selected IMGN632 (Heavy chain SEQ ID NO: 1, Light chain SEQ ID NO: 2) as a CD123-binding monoclonal antibody for pH engineering via histidine scanning. Briefly, CDRs in the heavy chain were identified using the methods described by Kabat et al (Kabat et al. (1992) Sequences of Proteins of Immunological Interest, DIANE publishing) and IMGT (Lefranc M P (1999) “The IMGT unique numbering for Immunoglobulins, T cell receptors and Ig-like domains” The Immunologist 7, 132-136), and for each CDR, residues falling under either or both Kabat and IMGT CDR definitions were called as CDR residues. To generate pH-dependent sequence variants, individual amino acid residues within the heavy chain CDRs were systematically substituted with a histidine, one at a time (MYT1252-MYT1292). In cases where the starting CDR residue was a histidine, it was mutated to an alanine. Antibody variants with only one histidine or alanine mutation in a heavy chain CDR were generated by co-transfection of Expi293 cells with a) one heavy chain sequence variant, and b) the corresponding starting ABPC light chain using methods known to the art. After allowing for four days of protein expression, cell culture supernatants were collected, quantified by SDS-PAGE analysis (FIG. 1), and the pH dependence of the variant was evaluated using biolayer interferometry (BLI) on an Octet RED 384 instrument. For constructs MYT1252, MYT1254-MYT1287, and MYT1289-1292, 104, of cell culture supernatant was diluted into 1904, of 1× PBST pH 7.4. For MYT1253 and MYT1288 254, and 504, of cell culture supernatant was diluted into 1754, and 1504, respectively. […] The resulting diluted supernatants were then captured on an anti-human Fc sensor (Forte Bio). A baseline was established using 1× PBST (50 mM Potassium Phosphate Buffer+150 mM NaCl+0.05% Tween 20) pH 7.4, and the sensor was associated with 50 nM of CD123 (CD123 Protein, His Tag, Acro Biosciences Cat. No. ILA-H52H6, Lot No. 1741d-89CF1-KB) in 1×PBST pH 7.4 for 120 sec to generate an association curve. In the dissociation phase, the antibody-antigen complex on the sensor was exposed to 1× PBST pH 7.4 for 300-600 sec. Baseline, association, and dissociation were repeated using 1×PBST pH 5.4 throughout in a separate condition.

Row | Binder | binding result
1 | B1 | binds
2 | B2 | binds
3 | B3 | binds
4 | B4 | binds
5 | B5 | binds
6 | B6 | binds
7 | B7 | binds
8 | B8 | binds
9 | B9 | binds
10 | B10 | binds
11 | B11 | binds
12 | B12 | binds
13 | B13 | binds
14 | B14 | binds
15 | B15 | binds
16 | B16 | binds
17 | B17 | binds
18 | B18 | binds

Row | Binder | binding result
19 | B19 | binds
20 | B20 | binds
21 | B21 | binds
22 | B22 | binds
23 | B23 | binds
24 | B24 | binds
25 | B25 | binds
26 | B26 | binds
27 | B27 | binds
28 | B28 | binds
29 | B29 | binds
30 | B30 | binds
31 | B31 | binds
32 | B32 | binds
33 | B33 | binds
34 | B34 | binds
35 | B35 | binds
36 | B36 | binds
